Source: patent US7598225

Molecular target: human HLA A2 molecules (human)
Assay: T2 cell binding assay, peptide at 50 ug/ml, surface HLA A2 stained with MAb A2,69, flow cytometry (no peptide: 127.25)
Conditions: remark: other sources report otherwise

VISNDVCAQV [PSA peptide 154-163]
mean channel fluorescent intensity: 182
